Test results as given in publication PMC5428233, “Cross-beta nanostructures based on dinaphthylalanine Gd-conjugates loaded with doxorubicin” (Scientific Reports, 2017).

Columns and labels:
Type in all cases: physicochemical
[1] = Aggregation by 1D 1H NMR at increasing concentration; settings: H2O/D2O 90/10 v/v
From the text: This trend was also confirmed by ^1HNMR measurements (see Figure S4). We have recently analyzed the conformational properties of DOTA-L6-F4 in aqueous solution by mono- and multi-dimensional, homo- and hetero-nuclear NMR techniques. In the present work we have used a similar approach and thus implemented 1D [^1H] and 2D [^1H, ^1H] NMR spectroscopy to study two different compounds: DOTA-L6-F2 and 2Nal2 analogue in absence and in presence of the DOTA coordinated metal ion lanthanum (III), La. We used lanthanum (III) since it gives rise to a NMR “easy to handle” diamagnetic complex. Both DOTA-L6-F2 and 2Nal2 present low aggregation propensities. […] In detail by comparing spectra recorded at 0.3 mg/mL and 5.0 mg/mL chemical shift changes appear relevant in the spectral regions between 8.0 and 8.2 ppm, where signals from HN amide protons are present and between 3.0 and 3.5 ppm where several peaks overlap (Table S1). […]
NMR experiments were acquired in the temperature range of 298–303 K on either a Varian Unity Inova 600 MHz spectrometer provided with a cold probe or a 400 MHz Varian instrument provided with a 5-mm triple resonance probe and z-axis pulsed-field gradients. […] The DOTA-L6-F2 was analyzed in the concentration range 0.3 mg/mL (i.e., 0.3 mM)–5.0 mg/mL (i.e., 4.8 mM); for the La-DOTA-L6-F2 the examined concentration range was 0.3 mg/mL (i.e., 0.3 mM)–10.0 mg/mL (i.e., 8.5 mM). […]

[2] = Self-aggregation by intrinsic naphthyl fluorescence (intensity decrease, excimer peak); settings: water, room temperature, excitation 280 nm
Protocol: Self-organization of the peptide conjugates at the atomic level was further characterized also in solution with fluorescence, UV-Vis, ^1HNMR, CD and FTIR spectroscopies. […] From ispection of Fig. 1b, the typical emission spectrum of the 2-naphthyl group with three maxima at 325, 340 and 355 nm, respectively, can be detected.
The determination of CAC (critical aggregate concentration) values was determined as previously described[6] by the titration of the fluorescent probe ANS (8-anilino-1-naphthalene sulfonic acid ammonium salt)[28], [29] with the peptide conjugates[30].

[3] = Transmission electron microscopy of self-assembled conjugates; settings: 5.0 mg/mL solution dried on grid, phosphotungstic acid stain
Protocol: Self-assembled peptide conjugate at 5.0 mg/mL, as free base or as metal complex, was initially characterized using TEM. […] The presence of a diffraction pattern both in SAXS and in WAXS is fingerprint of a hierarchical organization of the molecules in fibers from the atomic to the nanoscale.
TEM images were acquired by LaMest (Pozzuoli, Italy) with a FEI TECNAI G12 Spirit-Twin microscope (LaB6 source) endowed of a bottom mounted FEI Eagle-4k CCD camera (Eindhoven, The Netherlands), working at 120 kV.

[4] = Water proton relaxation measurements / NMRD profiles; settings: aqueous solution, 298 K
From the text: The paramagnetic relaxivity (r1p) of Gd (III) complexes is given by:1 r1p∝1/T1MH=Kf(τR) where K is a constant related to the strength of the dipolar interaction between the protons and the electronic magnetic moment, and τR is the correlation time associated with the reorientation of the Gd-H magnetic vector. This means that slowly moving high molecular weight systems are endowed with higher relaxivity than rapidly reorienting low molecular weight ones. In the case of self assembling Gd-containing systems, the extent of aggregation may be evaluated through the measure of the water proton longitudinal relaxation rate of its aqueous solution. In Fig. 8 are reported the NMRD (Nuclear Magnetic Resonance Dispersion) profiles of Gd-2Nal2 acquired at 21.5 MHz (0.5 T) and 298 K as a function of the complex concentration. […] At concentrations higher than 10–15 mg/mL the relaxivity assumes an almost stable value which corresponds to the system in the completely aggregated form. By analyzing the profile of the relaxivity data as a function of the applied field strength (NMRD - Nuclear Magnetic Relaxation Dispersion) it is possible to obtain an accurate determination of the reorientational correlation time (τR)[16], that is strictly related to the molecular size of the investigated system. NMRD profiles were acquired below (black circles) and above (white ones) the CAC values determined by ANS titration and ^1HNMR. […] Data were analyzed using the Solomon-Bloembergen-Morgan model, [18], considering one water molecule in the inner coordination sphere (q = 1) and fixing the exchange lifetime (τM) to a reliable value ([…]) on the basis of those previously reported for mono-amido DOTA derivatives[19]–[22]. The quantitative analysis of the NMRD profile of the aggregated form was not satisfactory when the simple inner- outer-sphere model was used, so the Lipari-Szabo approach was used for the description of the rotational dynamics. This model allows one to take into account the presence ofa certain degree of internal rotation superimposed on the overall tumbling motion, [24]. These two types ofmotion, a relatively fast local rotation of the coordination cage about the linker to the peptide scaffold superimposed on the global reorientation of the system, are characterized by different correlation times: τR ^l and τR ^g, respectively. The degree of correlation between global and local rotations is given by the parameter S^2, which takes values between 0 (completely independent motions) and 1 (entirely correlated motions).
Measure of R1 (longitudinal water proton relaxation rates) of Gd-2Nal2 were carried out on a Stelar Spinmaster spectrometer (Pavia, Italy) operating at 0.5 T which corresponds to 21.5 MHz Proton Larmor Frequency. R1 (1/T1) values were measured at 298 K by mean of the standard inversion-recovery technique. For the measure of the proton 1/T1 NMRD (Nuclear Magnetic Resonance Dispersion) profiles, a fast field-cycling Stelar relaxometer, operating over a continuum of magnetic field strengths from 0.00024 to 0.47 T (corresponding to 0.01–20 MHz proton Larmor frequencies) was used. The temperature was set at 298 K. The relaxometer is computer controlled and the absolute uncertainty is 1/T1 ± 1%. Additional data points were obtained on a Stelar Spinmaster spectrometer coupled to an electromagnet tunable at different Larmor Frequencies between 21.5 and 70 MHz. Experimental temperature control was obtained with an air-flow heater (Stelar VTC-91) endowed of a copper constantan thermocouple (uncertainty 0.1 °C). A previously reported relaxometric method[39] was used for the determination of the concentrations of the solutions used for the relaxometric characterization. The conventional Solomon-Bloembergen-Morgan theory was used for fitting of experimental data.

DOTA-L6-(2Nal)2 [2Nal2]
aggregation propensity by 1H NMR (in words) ([1]; 2Nal2 0.1-5.0 mg/mL, La-DOTA-L6-F2 0.3-10.0 mg/mL): cannot reveal significant aggregation | concentration of appearance of the excimer peak (380-430 nm) / formation of stable aggregates [2]: above 2.0 mg/mL | concentration at which self-aggregation begins (decrease of fluorescence intensity) ([2]; 0.025-20.0 mg/mL range): 200 to 500 µg/mL | supramolecular aggregation / morphology in TEM images [3]: long fibrillary nanostructures

DOTA-L6-F2 [reference compound]
concentration at which aggregation appears in 1H NMR spectra (spectral changes / line broadening) ([1]; 298-303 K): higher than 1.2 mg/mL

Gd-DOTA-L6-F2 [reference compound]
r1p (longitudinal proton relaxivity) ([4]; complex at 1 mg/mL): 5.7 mM⁻¹ s⁻¹ | r1p (longitudinal proton relaxivity) ([4]; complex at 25 mg/mL (nanoaggregates), text: at 20 MHz): 6.0 mM⁻¹ s⁻¹
